Assay results: IntAct's records for PubMed 31515488

B1: Poliovirus receptor (Homo sapiens), P15151 (parent)
chain: MARAMAAAWPLLLVALLVLSWPPPGTGDVVVQAPTQVPGFLGDSVTLPCYLQVPNMEVTHVSQLTWARHGESGSMAVFHQTQGPSYSESKRLEFVAARLGAELRNASLRMFGLRVEDEGNYTCLFVTFPQGSRSVDIWLRVLAKPQNTAEVQKVQLTGEPVPMARCVSTGGRPPAQITWHSDLGGMPNTSQVPGFLSGTVTVTSLWILVPSSQVDGKNVTCKVEHESFEKPQLLTVNLTVYYPPEVSISGYDNNWYLGQNEATLTCDARSNPEPTGYNWSTTMGPLPPFAVAQGAQLLIRPVDKPINTTLICNVTNALGARQAELTVQVKEGPPSEHSGISRNAIIFLVLGILVFLILLGIGIYFYWSKCSREVLWHCHLCPSSTEHASASANGHVSYSAVSRENSSSQDPQTEGTR
partner: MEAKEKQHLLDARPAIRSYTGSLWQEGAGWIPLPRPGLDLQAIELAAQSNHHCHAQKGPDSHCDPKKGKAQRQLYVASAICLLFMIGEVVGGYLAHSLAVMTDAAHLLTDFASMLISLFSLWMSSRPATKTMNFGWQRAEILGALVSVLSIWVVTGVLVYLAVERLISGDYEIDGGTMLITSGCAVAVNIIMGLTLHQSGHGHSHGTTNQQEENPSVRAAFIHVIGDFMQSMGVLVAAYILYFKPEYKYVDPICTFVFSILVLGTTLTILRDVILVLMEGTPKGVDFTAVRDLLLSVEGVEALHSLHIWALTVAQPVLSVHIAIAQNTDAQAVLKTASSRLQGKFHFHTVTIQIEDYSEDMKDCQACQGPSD
B2: Interferon-induced protein with tetratricopeptide repeats 2 (Homo sapiens), P09913 (parent)
chain: MSENNKNSLESSLRQLKCHFTWNLMEGENSLDDFEDKVFYRTEFQNREFKATMCNLLAYLKHLKGQNEAALECLRKAEELIQQEHADQAEIRSLVTWGNYAWVYYHMGRLSDVQIYVDKVKHVCEKFSSPYRIESPELDCEEGWTRLKCGGNQNERAKVCFEKALEKKPKNPEFTSGLAIASYRLDNWPPSQNAIDPLRQAIRLNPDNQYLKVLLALKLHKMREEGEEEGEGEKLVEEALEKAPGVTDVLRSAAKFYRRKDEPDKAIELLKKALEYIPNNAYLHCQIGCCYRAKVFQVMNLRENGMYGKRKLLELIGHAVAHLKKADEANDNLFRVCSILASLHALADQYEDAEYYFQKEFSKELTPVAKQLLHLRYGNFQLYQMKCEDKAIHHFIEGVKINQKSREKEKMKDKLQKIAKMRLSKNGADSEALHVLAFLQELNEKMQQADEDSERGLESGSLIPSASSWNGE
partner: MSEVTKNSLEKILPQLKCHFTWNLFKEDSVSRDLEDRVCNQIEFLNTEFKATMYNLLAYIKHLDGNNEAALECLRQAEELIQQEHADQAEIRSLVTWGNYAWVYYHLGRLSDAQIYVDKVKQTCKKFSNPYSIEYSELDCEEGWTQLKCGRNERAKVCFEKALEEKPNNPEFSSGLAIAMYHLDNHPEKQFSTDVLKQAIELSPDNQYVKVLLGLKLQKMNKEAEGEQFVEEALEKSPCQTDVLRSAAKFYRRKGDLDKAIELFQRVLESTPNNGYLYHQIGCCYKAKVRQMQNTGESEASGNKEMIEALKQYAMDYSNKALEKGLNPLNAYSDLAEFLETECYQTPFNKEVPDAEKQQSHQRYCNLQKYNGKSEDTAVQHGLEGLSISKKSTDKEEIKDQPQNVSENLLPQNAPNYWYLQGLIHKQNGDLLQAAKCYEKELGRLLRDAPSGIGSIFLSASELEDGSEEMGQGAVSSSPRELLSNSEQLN
B3: Zinc finger and BTB domain-containing protein 43 (Homo sapiens), O43298 (parent)
chain: MEPGTNSFRVEFPDFSSTILQKLNQQRQQGQLCDVSIVVQGHIFRAHKAVLAASSPYFCDQVLLKNSRRIVLPDVMNPRVFENILLSSYTGRLVMPAPEIVSYLTAASFLQMWHVVDKCTEVLEGNPTVLCQKLNHGSDHQSPSSSSYNGLVESFELGSGGHTDFPKAQELRDGENEEESTKDELSSQLTEHEYLPSNSSTEHDRLSTEMASQDGEEGASDSAEFHYTRPMYSKPSIMAHKRWIHVKPERLEQACEGMDVHATYDEHQVTESINTVQTEHTVQPSGVEEDFHIGEKKVEAEFDEQADESNYDEQVDFYGSSMEEFSGERSDGNLIGHRQEAALAAGYSENIEMVTGIKEEASHLGFSATDKLYPCQCGKSFTHKSQRDRHMSMHLGLRPYGCGVCGKKFKMKHHLVGHMKIHTGIKPYECNICAKRFMWRDSFHRHVTSCTKSYEAAKAEQNTTEAN
B4: Microtubule-associated tumor suppressor candidate 2 (Homo sapiens), Q5JR59-3 (parent)
chain: MGHCCCKPYNCLQCLDKTNESALVKEKELSIELANIRDEVAFHTAKCEKLQKEKEELERRFEDEVKRLGWQQQAELQELEERLQLQFEAEMARLQEEHGDQLLSIRCQHQEQVEDLTASHDAALLEMENNHTVAITILQDDHDHKVQELMSTHELEKKELEENFEKLRLSLQDQVDTLTFQSQSLRDRARRFEEALRKNTEEQLEIALAPYQHLEEDMKSLKQVLEMKNQQIHEQEKKILELEKLAEKNIILEEKIQVLQQQNEDLKARIDQNTVVTRQLSEENANLQEYVEKETQEKKRLSRTNEELLWKLQTGDPTSPIKLSPTSPVYRGSSSGPSSPARVSTTPR
partner: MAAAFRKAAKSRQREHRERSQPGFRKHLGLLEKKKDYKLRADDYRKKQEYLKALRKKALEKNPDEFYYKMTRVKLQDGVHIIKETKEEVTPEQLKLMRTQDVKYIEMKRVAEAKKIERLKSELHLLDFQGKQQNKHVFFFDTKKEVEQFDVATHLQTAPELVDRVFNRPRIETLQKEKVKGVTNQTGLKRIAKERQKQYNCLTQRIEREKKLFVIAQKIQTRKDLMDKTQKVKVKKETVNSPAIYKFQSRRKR
B5: UPF0193 protein EVG1 (Homo sapiens), Q9BZE7 (parent)
chain: MASQKQMEVVTKGTGFRRRPKTITYTPGTCELLRVMMKESKLTNIQQRHIMDIMKRGDALPLQCSPTSSQRVLPSKQIASPIYLPPILAARPHLRPANMCQANGAYSREQFKPQATRDLEKEKQRLQNIFATGKDMEERKRKAPPARQKAPAPELDRFEELVKEIQERKEFLADMEALGQGKQYRGIILAEISQKLREMEDIDHRRSEELRKGLATT
B6: F-box/WD repeat-containing protein 1A (Homo sapiens), Q9Y297 (parent)
chain: MDPAEAVLQEKALKFMCSMPRSLWLGCSSLADSMPSLRCLYNPGTGALTAFQNSSEREDCNNGEPPRKIIPEKNSLRQTYNSCARLCLNQETVCLASTAMKTENCVAKTKLANGTSSMIVPKQRKLSASYEKEKELCVKYFEQWSESDQVEFVEHLISQMCHYQHGHINSYLKPMLQRDFITALPARGLDHIAENILSYLDAKSLCAAELVCKEWYRVTSDGMLWKKLIERMVRTDSLWRGLAERRGWGQYLFKNKPPDGNAPPNSFYRALYPKIIQDIETIESNWRCGRHSLQRIHCRSETSKGVYCLQYDDQKIVSGLRDNTIKIWDKNTLECKRILTGHTGSVLCLQYDERVIITGSSDSTVRVWDVNTGEMLNTLIHHCEAVLHLRFNNGMMVTCSKDRSIAVWDMASPTDITLRRVLVGHRAAVNVVDFDDKYIVSASGDRTIKVWNTSTCEFVRTLNGHKRGIACLQYRDRLVVSGSSDNTIRLWDIECGACLRVLEGHEELVRCIRFDNKRIVSGAYDGKIKVWDLVAALDPRAPAGTLCLRTLVEHSGRVFRLQFDEFQIVSSSHDDTILIWDFLNDPAAQAEPPRSPSRTYTYISR
partner: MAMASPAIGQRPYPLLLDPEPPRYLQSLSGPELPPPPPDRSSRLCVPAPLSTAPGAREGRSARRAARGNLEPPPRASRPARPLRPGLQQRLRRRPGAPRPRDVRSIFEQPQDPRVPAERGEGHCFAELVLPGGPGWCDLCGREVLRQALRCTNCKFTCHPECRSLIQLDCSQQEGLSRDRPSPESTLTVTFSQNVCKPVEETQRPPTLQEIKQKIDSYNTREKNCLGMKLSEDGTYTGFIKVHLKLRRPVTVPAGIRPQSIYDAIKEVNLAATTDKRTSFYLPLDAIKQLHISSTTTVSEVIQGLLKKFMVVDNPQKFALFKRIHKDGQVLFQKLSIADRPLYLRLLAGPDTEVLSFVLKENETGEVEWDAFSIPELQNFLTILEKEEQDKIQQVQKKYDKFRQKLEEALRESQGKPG

Variants of: B1
Details: with znt2_human SLC30A2, Q9BRI3

Variant | effect of a mutation on the interaction
A67T | with no effect

Variants of: B2
Details: with ifit3_human IFIT3, O14879

Variant | effect of a mutation on the interaction
E79A | disrupting interaction strength

Variants of: B3
Details: with psmd3_human PSMD3, O43242
Sequence of psmd3_human PSMD3, O43242 (O43242 whole entry): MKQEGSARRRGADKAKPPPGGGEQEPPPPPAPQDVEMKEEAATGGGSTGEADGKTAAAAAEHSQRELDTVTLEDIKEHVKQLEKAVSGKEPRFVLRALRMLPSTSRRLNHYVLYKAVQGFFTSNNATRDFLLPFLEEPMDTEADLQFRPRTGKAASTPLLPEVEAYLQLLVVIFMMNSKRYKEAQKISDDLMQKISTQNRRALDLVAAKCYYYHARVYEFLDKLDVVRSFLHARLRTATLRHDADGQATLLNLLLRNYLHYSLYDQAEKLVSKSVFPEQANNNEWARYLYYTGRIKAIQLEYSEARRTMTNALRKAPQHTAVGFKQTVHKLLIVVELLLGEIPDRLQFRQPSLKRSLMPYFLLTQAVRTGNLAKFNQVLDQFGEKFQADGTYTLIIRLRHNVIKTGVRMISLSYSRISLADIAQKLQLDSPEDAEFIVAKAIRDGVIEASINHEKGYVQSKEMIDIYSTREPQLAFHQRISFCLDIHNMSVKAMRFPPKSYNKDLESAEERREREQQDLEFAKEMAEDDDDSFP

Variant | effect of a mutation on the interaction
L151V | disrupting interaction strength

Variants of: B3
Details: with traf2_human TRAF2, Q12933
Sequence of traf2_human TRAF2, Q12933 (Q12933 whole entry): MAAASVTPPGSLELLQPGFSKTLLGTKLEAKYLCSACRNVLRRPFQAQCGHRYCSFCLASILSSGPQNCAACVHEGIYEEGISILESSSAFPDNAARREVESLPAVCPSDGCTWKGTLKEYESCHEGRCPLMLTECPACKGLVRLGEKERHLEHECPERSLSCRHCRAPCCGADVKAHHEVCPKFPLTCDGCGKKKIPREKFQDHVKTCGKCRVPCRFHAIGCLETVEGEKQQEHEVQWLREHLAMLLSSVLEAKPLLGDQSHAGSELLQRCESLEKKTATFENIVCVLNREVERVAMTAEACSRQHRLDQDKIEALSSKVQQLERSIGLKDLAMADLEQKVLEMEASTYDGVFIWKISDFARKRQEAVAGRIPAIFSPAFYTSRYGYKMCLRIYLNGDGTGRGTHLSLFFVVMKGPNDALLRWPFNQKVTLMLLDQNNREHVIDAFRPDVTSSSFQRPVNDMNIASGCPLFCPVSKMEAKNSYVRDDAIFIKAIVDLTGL

Variant | effect of a mutation on the interaction
L151V | disrupting interaction strength

Variants of: B3
Details: with mo4l2_human MORF4L2, Q15014
Sequence of mo4l2_human MORF4L2, Q15014 (Q15014 whole entry): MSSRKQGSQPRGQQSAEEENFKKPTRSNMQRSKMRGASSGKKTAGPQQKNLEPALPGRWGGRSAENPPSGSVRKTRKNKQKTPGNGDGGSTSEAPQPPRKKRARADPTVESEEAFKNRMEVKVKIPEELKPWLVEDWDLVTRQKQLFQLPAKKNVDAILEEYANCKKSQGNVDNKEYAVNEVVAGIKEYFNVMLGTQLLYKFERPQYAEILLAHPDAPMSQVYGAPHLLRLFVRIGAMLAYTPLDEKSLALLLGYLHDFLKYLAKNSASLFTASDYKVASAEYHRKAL

Variant | effect of a mutation on the interaction
L151V | disrupting interaction strength

Variants of: B3
Details: with arrb1_human ARRB1, P49407
Sequence of arrb1_human ARRB1, P49407 (P49407 whole entry): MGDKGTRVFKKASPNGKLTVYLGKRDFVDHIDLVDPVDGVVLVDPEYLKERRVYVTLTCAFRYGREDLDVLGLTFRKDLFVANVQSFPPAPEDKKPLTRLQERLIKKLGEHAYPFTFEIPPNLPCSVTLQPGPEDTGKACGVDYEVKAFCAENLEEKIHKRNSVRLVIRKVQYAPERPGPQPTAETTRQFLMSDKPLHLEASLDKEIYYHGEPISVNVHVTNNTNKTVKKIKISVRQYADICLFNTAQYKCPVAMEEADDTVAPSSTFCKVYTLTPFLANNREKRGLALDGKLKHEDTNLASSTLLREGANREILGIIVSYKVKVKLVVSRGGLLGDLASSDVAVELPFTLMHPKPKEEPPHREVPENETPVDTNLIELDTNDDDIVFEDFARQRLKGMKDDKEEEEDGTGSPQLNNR

Variant | effect of a mutation on the interaction
L151V | disrupting interaction strength

Variants of: B4
Details: with utp11_human UTP11, Q9Y3A2

Variant | effect of a mutation on the interaction
A89V | with no effect

Variants of: B5
Details: with ccdb1_human CCNDBP1, O95273
Sequence of ccdb1_human CCNDBP1, O95273 (O95273 whole entry): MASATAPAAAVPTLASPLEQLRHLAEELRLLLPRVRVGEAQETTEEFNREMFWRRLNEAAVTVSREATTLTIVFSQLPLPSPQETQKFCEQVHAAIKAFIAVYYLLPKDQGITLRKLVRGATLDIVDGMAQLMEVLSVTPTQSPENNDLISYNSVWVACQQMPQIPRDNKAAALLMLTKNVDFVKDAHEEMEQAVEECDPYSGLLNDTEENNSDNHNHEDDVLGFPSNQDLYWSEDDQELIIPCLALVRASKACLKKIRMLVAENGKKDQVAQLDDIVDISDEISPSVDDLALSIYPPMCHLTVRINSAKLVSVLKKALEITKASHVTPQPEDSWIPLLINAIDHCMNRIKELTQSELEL

Variant | effect of a mutation on the interaction
M136L | with no effect

Variants of: B6
Details: with rasf5_human RASSF5, Q8WWW0

Variant | effect of a mutation on the interaction
L8M | with no effect
T414A | disrupting interaction strength
I439V | disrupting interaction strength
P592H | with no effect
R594H | with no effect
